# Data taken from US20240400703A1 (Genmab, published 2024).
# Several values for one entry are separate records, joined by “and”; a condition that tells them apart may be missing. Equal values may be shown once.
# T1: cynomolgus monkey OX40 expressed on HEK293F cells (cynomolgus monkey (Macaca fascicularis), UniProt P43489 29-277 (human entry))
# T1 construct: full-length entry
# T1 chain: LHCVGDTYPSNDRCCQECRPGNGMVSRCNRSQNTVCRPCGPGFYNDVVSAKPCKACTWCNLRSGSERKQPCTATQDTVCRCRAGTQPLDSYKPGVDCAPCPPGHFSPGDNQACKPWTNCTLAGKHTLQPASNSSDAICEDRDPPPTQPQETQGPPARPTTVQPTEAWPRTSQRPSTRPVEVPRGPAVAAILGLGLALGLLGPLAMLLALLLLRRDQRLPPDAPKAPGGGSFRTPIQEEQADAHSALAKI
# T2: human OX40 expressed on cells (human, UniProt P43489 29-277)
# T2 construct: also called CD134; TNFRSF4
# T2 sequence: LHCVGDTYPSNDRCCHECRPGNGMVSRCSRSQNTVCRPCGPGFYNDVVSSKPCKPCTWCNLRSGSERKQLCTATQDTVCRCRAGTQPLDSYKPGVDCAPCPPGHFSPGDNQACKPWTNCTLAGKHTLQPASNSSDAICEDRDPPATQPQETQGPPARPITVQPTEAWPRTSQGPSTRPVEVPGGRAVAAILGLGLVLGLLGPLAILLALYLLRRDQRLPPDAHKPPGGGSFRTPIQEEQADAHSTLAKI
# B1: IgG1-CD134-003-HC6LC2-P329R-E345R (antibody)
# heavy: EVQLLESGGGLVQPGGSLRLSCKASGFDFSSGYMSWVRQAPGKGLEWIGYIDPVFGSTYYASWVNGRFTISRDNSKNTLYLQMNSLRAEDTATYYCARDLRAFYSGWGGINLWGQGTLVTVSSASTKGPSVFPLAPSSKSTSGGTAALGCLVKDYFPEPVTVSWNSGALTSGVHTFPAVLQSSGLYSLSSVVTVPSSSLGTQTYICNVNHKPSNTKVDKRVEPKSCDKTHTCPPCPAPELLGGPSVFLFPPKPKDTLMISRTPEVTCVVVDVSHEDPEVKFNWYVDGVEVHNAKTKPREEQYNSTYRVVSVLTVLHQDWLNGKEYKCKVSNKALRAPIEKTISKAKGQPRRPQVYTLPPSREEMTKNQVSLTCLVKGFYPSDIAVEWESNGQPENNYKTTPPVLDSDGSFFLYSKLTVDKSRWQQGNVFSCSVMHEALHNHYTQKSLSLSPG
# light: AAVLTQSPSSLSASVGDRVTITCQSSQIVVNNNFLSWYQQKPGKAPKLLIYDASNLASGVPDRFSGSGSGTDFTFTISSLQPEDIATYYCLGGYDDDAENAFGGGTKVEIKRTVAAPSVFIFPPSDEQLKSGTASVVCLLNNFYPREAKVQWKVDNALQSGNSQESVTEQDSKDSTYSLSSTLTLSKADYEKHKVYACEVTHQGLSSPVTKSFNRGEC
# notes: humanized; human IgG1 with P329R and E345R (Eu numbering), kappa; also called IgG1-CD134-003-HC6LC2-RR
# Experiments:
# [1] = molecular target: T3, His-tagged human recombinant FcγRIIIa 176-Phe (Sino Biological, cat. no. 10389-H27H) (human, UniProt P08637 17-208); test: SPR, His-tagged FcγR captured on anti-His chip, antibody injected
# T3 construct: also called FcγRIIIa[F]
# Description: (§1) Biacore Series S Sensor Chips CM5 (Cytiva, cat. no. 29104988) were covalently coated with anti-His antibody using amine-coupling and His capture kits (Cytiva, cat. no. BR100050 and cat. no. 29234602) according to the manufacturer's instructions. […] After three start-up cycles of HBS-EP+ buffer, antibody samples were injected for 12 cycles per sample to generate binding curves using antibody concentration ranges of 0 to 3,000 nM for FcγRIa and 0 to 10,000 nM for the other FcγRs.
# (§2) Dissociation from the anti-His-coated surface was performed by regeneration of the surface using 10 mM Glycine-HCl pH 1.5 (Cytiva, cat. no. BR100354).
# [2] = molecular target: T4, His-tagged human recombinant FcγRIIIa 176-Val (Sino Biological, cat. no. 10389-H27H1-B) (human, UniProt P08637 17-208); test: as above
# T4 construct: also called FcγRIIIa[V]
# Description: as §1, §2
# [3] = molecular target: T1, cynomolgus monkey OX40 expressed on …; test: flow cytometry, OX40-transfected HEK293F cells, gMFI (PE)
# Description: (§3) Transfected cells were seeded in 96-well plates (30,000 cells/well; ThermoFisher, cat. no. 163320) for sequential incubations, with washing steps in between using fluorescence-activated cell sorting (FACS) buffer 1 (phosphate buffered saline [PBS; Lonza, cat. no. BE17-517Q] supplemented with 0.1% bovine serum albumin [BSA; Roche, cat. no. 10735086001] and 0.02% sodium azide [NaN₃; Bio-World, cat. no. 41920044-3]) supplemented with 2 mM ethylenediaminetetraacetic acid (EDTA; Sigma-Aldrich, cat. no. 03690). […] Cells were then washed using EDTA-supplemented FACS buffer 1, resuspended in a 30 μL solution of viability marker ToPro-3 (Invitrogen, cat. no. T3605, diluted 1:10,000) in EDTA-supplemented FACS buffer 1, and subsequently analyzed on an iQue® 3 flow cytometer (Satorius). Data were analyzed using FlowJo software and were visualized using GraphPad Prism.
# [4] = molecular target: T2, human OX40 expressed on cells; test: as above
# Description: as §3
# [5] = molecular target: T2, human OX40 expressed on cells; test: flow cytometry, activated human CD4+ T cells, donor 3
# Description: Healthy human donor PBMCs were purified essentially as described in Example 7. The cell concentration was adjusted to 2×10⁶ cells per mL (final concentration) in assay medium and plated in 6-well plates (Greiner, cat. no. 657160). PBMCs were stimulated with 0.3 μg/mL anti-CD3 ([…] Technologies, cat. no. 60011) and 0.5 μg/mL anti-CD28 antibodies (BioLegend, cat. no. 302934) and cultured for two days at 37° C., 5% CO₂. Next, the PBMCs were harvested, counted and brought to a concentration of 2×10⁶ cells per mL in FACS buffer 1 (DPBS with 2% heat-inactivated FBS and 2 mM ethylenediaminetetraacetic acid [EDTA]). […] After 60 min at RT, the cells were prepared for flow cytometric analyses. To this end, the cells were washed twice with 150 μL FACS buffer 1 and 30 μL/well cell-surface antibody mix (Table 9) in FACS buffer 1 containing antibody against human Fcγ antibody (Table 9) and fixable viability dye eFluor780 (1:1,500) was added. The staining procedures were carried out at 4° C. for 15-20 min protected from light. Stained cells were washed twice with 120-150 μL FACS buffer 1 (5 min, 460×g, RT) and resuspended in 60-100 μL FACS buffer 1 for direct flow cytometric analyses. Flow cytometric data were acquired on a FACSymphony A3 and analyzed with FlowJo software.
# [6] = molecular target: T2, human OX40 expressed on cells; test: flow cytometry, activated human CD8+ T cells, without sOX40L, n=3
# Description: (§4) Stimulated PBMCs were pelleted, resuspended in FACS buffer 2 (DPBS with 2% heat-inactivated FBS [Sigma-Aldrich, cat. no. F7524] and 2 mM EDTA [Sigma-Aldrich, cat. no. 03690]), and seeded (100,000 cells/well) in round-bottom 96-well plates (VWR International GmbH, cat. no. 734-197). […] Next, cells were washed twice in FACS buffer, and incubated with 30 μL of the antibody panel described in Table 11 diluted in FACS buffer 2 containing 1:1,500 Fixable Viability Stain eFluor 780 at 4° C. for 20 min, protected from light. The cells were subsequently washed twice with 120-150 μL FACS buffer 2 and measured on a BD FACSCelesta flow cytometer using a BD High Throughput sampler and subsequent analysis was done using FlowJo software.
# [7] = molecular target: T2, human OX40 expressed on cells; test: flow cytometry, loss of sOX40L (2 µg/mL) binding to activated human CD8+ T cells; competitor sOX40L; unit taken from the upper half of the table
# Description: as §4
# T3 sequence (P08637 17-208 limits assumed): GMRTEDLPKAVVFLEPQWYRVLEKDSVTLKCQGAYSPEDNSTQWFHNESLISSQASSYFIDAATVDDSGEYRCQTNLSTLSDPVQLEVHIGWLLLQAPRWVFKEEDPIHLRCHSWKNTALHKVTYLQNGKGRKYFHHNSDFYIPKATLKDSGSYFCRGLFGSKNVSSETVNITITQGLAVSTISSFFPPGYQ
# T4 sequence (P08637 17-208 F176V limits assumed): as the sequence (P08637 17-208 limits assumed) above, with F160V counted along it
binder,measurement,setting,value
B1,binding result,[1],"no binding (tested: about 4,000 nM)"
same,binding result,[2],"no binding (tested: 10,000 nM)"
same,EC50 (read off the curve),[3],~0.05 µg/mL
same,EC50 (read off the curve),[4],~0.05 µg/mL
same,EC50,[5],0.0187 µg/mL
same,EC50,[6],0.017 µg/mL and 0.114 nM
same,IC50,[7],0.561 nM
